Measured values taken from US20250297021A1.
Several values for one entry are separate records, joined by “and”; a condition that tells them apart may be missing. Equal values may be shown once.

Legend:
[1] = target: human BCMA-His protein (human) (UniProt Q02223); assay: competition ELISA vs hAPRIL-biotin on coated human BCMA; antibody 100.00 nM
[2] = target: human BCMA-His protein (human) (UniProt Q02223); assay: competition ELISA vs hAPRIL-biotin on coated human BCMA; antibody 33.33 nM
[3] = target: human BCMA-His protein (human) (UniProt Q02223); assay: competition ELISA vs hAPRIL-biotin on coated human BCMA; antibody 1.23 nM
[4] = target: human BCMA-His protein (human) (UniProt Q02223); assay: competition ELISA vs hAPRIL-biotin on coated human BCMA; antibody 11.11 nM
[5] = target: human BCMA-His protein (human) (UniProt Q02223); assay: competition ELISA vs hAPRIL-biotin on coated human BCMA; antibody 3.70 nM
[6] = target: human BCMA-His protein (human) (UniProt Q02223); assay: competition ELISA vs hAPRIL-biotin on coated human BCMA; antibody 0.14 nM
[7] = target: human BCMA-His protein (human) (UniProt Q02223); assay: competition ELISA vs hAPRIL-biotin on coated human BCMA; antibody 0.41 nM
[8] = target: human BCMA on cells (human) (UniProt Q02223); assay: FACS, H929 cells
[9] = target: human BCMA-His protein (human) (UniProt Q02223); assay: ELISA, human BCMA-His coated; Ab 0.0001 nM
[10] = target: human BCMA on cells (human) (UniProt Q02223); assay: FACS, U266 cells
[11] = target: human BCMA on cells (human) (UniProt Q02223); assay: cell ELISA, Flp-inCHO-human BCMA cells; Ab 0.01 nM
[12] = target: monkey BCMA-His protein (monkey); assay: ELISA, monkey BCMA-His coated; Ab 100 nM
[13] = target: monkey BCMA-His protein (monkey); assay: ELISA, monkey BCMA-His coated; Ab 0.001 nM
[14] = target: human BCMA-His protein (human) (UniProt Q02223); assay: ELISA, human BCMA-His coated; Ab 1 nM
[15] = target: monkey BCMA on cells (monkey); assay: FACS, Flp-in CHO-monkey BCMA cells
[16] = target: human BCMA on cells (human) (UniProt Q02223); assay: FACS, Flp-in CHO-human BCMA cells
[17] = target: human BCMA-His protein (human) (UniProt Q02223); assay: ELISA, human BCMA-His coated; Ab 0.001 nM
[18] = target: monkey BCMA-His protein (monkey); assay: ELISA, monkey BCMA-His coated; Ab 1 nM
[19] = target: human BCMA-His protein (human) (UniProt Q02223); assay: ELISA, human BCMA-His coated; Ab 0.01 nM
[20] = target: monkey BCMA-His protein (monkey); assay: ELISA, monkey BCMA-His coated; Ab 0.1 nM
[21] = target: monkey BCMA-His protein (monkey); assay: ELISA, monkey BCMA-His coated; Ab 0.001 nM; remark: listed apart in the source
[22] = target: human BCMA on cells (human) (UniProt Q02223); assay: FACS, U266 cells; remark: listed apart in the source
[23] = target: human BCMA-His protein (human) (UniProt Q02223); assay: ELISA, human BCMA-His coated; Ab 0.1 nM
[24] = target: human BCMA on cells (human) (UniProt Q02223); assay: cell ELISA, Flp-inCHO-human BCMA cells; Ab 33.33 nM
[25] = target: monkey BCMA-His protein (monkey); assay: ELISA, monkey BCMA-His coated; Ab 0.0001 nM
[26] = target: human BCMA on cells (human) (UniProt Q02223); assay: cell ELISA, Flp-inCHO-human BCMA cells; Ab 0.02 nM
[27] = target: human BCMA on cells (human) (UniProt Q02223); assay: cell ELISA, Flp-inCHO-human BCMA cells; Ab 0.05 nM
[28] = target: human BCMA on cells (human) (UniProt Q02223); assay: FACS, H929 cells; remark: listed apart in the source
[29] = target: human BCMA on cells (human) (UniProt Q02223); assay: cell ELISA, Flp-inCHO-human BCMA cells; Ab 3.70 nM
[30] = target: monkey BCMA-His protein (monkey); assay: ELISA, monkey BCMA-His coated; Ab 10 nM
[31] = target: human BCMA on cells (human) (UniProt Q02223); assay: cell ELISA, Flp-inCHO-human BCMA cells; Ab 100.00 nM
[32] = target: human BCMA on cells (human) (UniProt Q02223); assay: cell ELISA, Flp-inCHO-human BCMA cells; Ab 11.11 nM
[33] = target: monkey BCMA-His protein (monkey); assay: ELISA, monkey BCMA-His coated; Ab 0.0001 nM; remark: listed apart in the source
[34] = target: human BCMA-His protein (human) (UniProt Q02223); assay: ELISA, human BCMA-His coated; Ab 10 nM
[35] = target: human BCMA-His protein (human) (UniProt Q02223); assay: ELISA, human BCMA-His coated; Ab 0.0001 nM; remark: listed apart in the source
[36] = target: human BCMA on cells (human) (UniProt Q02223); assay: cell ELISA, Flp-inCHO-human BCMA cells; Ab 0.41 nM
[37] = target: monkey BCMA-His protein (monkey); assay: ELISA, monkey BCMA-His coated; Ab 0.1 nM; remark: listed apart in the source
[38] = target: human BCMA on cells (human) (UniProt Q02223); assay: cell ELISA, Flp-inCHO-human BCMA cells; Ab 1.23 nM
[39] = target: monkey BCMA-His protein (monkey); assay: ELISA, monkey BCMA-His coated; Ab 10 nM; remark: listed apart in the source
[40] = target: human BCMA on cells (human) (UniProt Q02223); assay: cell ELISA, Flp-inCHO-human BCMA cells; Ab 0.14 nM
[41] = target: monkey BCMA-His protein (monkey); assay: ELISA, monkey BCMA-His coated; Ab 100 nM; remark: listed apart in the source
[42] = target: human BCMA-His protein (human) (UniProt Q02223); assay: ELISA, human BCMA-His coated; Ab 10 nM; remark: listed apart in the source
[43] = target: human BCMA on cells (human) (UniProt Q02223); assay: cell ELISA, Flp-inCHO-human BCMA cells; Ab 0.002 nM
[44] = target: human BCMA on cells (human) (UniProt Q02223); assay: FACS, RPMI8226 cells
[45] = target: human BCMA-His protein (human) (UniProt Q02223); assay: ELISA, human BCMA-His coated; Ab 100 nM
[46] = target: human BCMA on cells (human) (UniProt Q02223); assay: FACS, RPMI8226 cells; remark: listed apart in the source
[47] = target: monkey BCMA-His protein (monkey); assay: ELISA, monkey BCMA-His coated; Ab 0.01 nM
[48] = target: monkey BCMA-His protein (monkey); assay: ELISA, monkey BCMA-His coated; Ab 1 nM; remark: listed apart in the source

Chain of monkey BCMA-His protein (monkey) (A0A2K5 entry or part of it limits assumed): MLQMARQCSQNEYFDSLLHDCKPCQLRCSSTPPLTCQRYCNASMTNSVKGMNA
Chain of human BCMA-His protein (human) (Q02223 1-54 limits assumed): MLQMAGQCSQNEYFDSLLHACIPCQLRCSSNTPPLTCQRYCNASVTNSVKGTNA
Chain of human BCMA on cells (human) (Q02223 whole entry): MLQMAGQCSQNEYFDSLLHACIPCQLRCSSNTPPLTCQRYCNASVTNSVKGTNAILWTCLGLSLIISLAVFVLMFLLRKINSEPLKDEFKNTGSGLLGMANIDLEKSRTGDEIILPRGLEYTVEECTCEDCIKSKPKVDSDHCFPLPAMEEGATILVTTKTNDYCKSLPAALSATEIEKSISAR

anti-hel-hIgG1 (antibody)
OD450 [1]: 1.54 OD450 and 1.45 OD450 and 1.57 OD450
OD450 [2]: 1.41 OD450 and 1.31 OD450 and 1.46 OD450
OD450 [3]: 1.43 OD450 and 1.27 OD450 and 1.53 OD450
OD450 [4]: 1.39 OD450 and 1.24 OD450 and 1.51 OD450
OD450 [5]: 1.38 OD450 and 1.29 OD450 and 1.53 OD450
OD450 [6]: 1.43 OD450 and 1.28 OD450 and 1.63 OD450
OD450 [7]: 1.41 OD450 and 1.31 OD450 and 1.48 OD450

anti-hel-hIgG1 (negative control antibody against hen egg lysozyme)
Maximum mean fluorescence intensity [8]: 94 and 69
OD450 [9]: 0.05
Maximum mean fluorescence intensity [10]: 103
OD450 [11]: 0.08 and 0.09
OD450 [12]: 0.08 and 0.18
OD450 [13]: 0.06 and 0.17
OD450 [14]: 0.05
Cell mean fluorescence density [15]: 49
Cell mean fluorescence density [16]: 54.6
OD450 [17]: 0.05
OD450 [18]: 0.05
OD450 [19]: 0.05
OD450 [20]: 0.05
OD450 [21]: 0.05
Maximum mean fluorescence intensity [22]: 86 and 101
OD450 [23]: 0.05
OD450 [24]: 0.09 and 0.14
OD450 [25]: 0.06 and 0.08
OD450 [26]: 0.08 and 0.1
OD450 [27]: 0.08 and 0.09
Maximum mean fluorescence intensity [28]: 110
OD450 [29]: 0.08 and 0.09
OD450 [30]: 0.08
OD450 [31]: 0.11 and 0.28
OD450 [32]: 0.08 and 0.1
OD450 [33]: 0.05
OD450 [34]: 0.07
OD450 [35]: 0.06 and 0.09
OD450 [36]: 0.08 and 0.09
OD450 [37]: 0.08 and 0.19
OD450 [38]: 0.08 and 0.09
OD450 [39]: 0.06
OD450 [40]: 0.08 and 0.09
OD450 [41]: 0.1
OD450 [42]: 0.27 and 0.12
OD450 [43]: 0.08 and 0.09
Maximum mean fluorescence intensity [44]: 81 and 107
OD450 [45]: 0.12
Maximum mean fluorescence intensity [46]: 118
OD450 [47]: 0.04
OD450 [48]: 0.06 and 0.17
